Assay results reported in the Immune Epitope Database (IEDB).

Experiments:
HLA-B*40:01 = experiment: IEDB peptide-MHC binding, purified MHC/direct/fluorescence; filed as Kd, often an IC50 or EC50 that approximates it; ≥ and ≤ were set here for values at or beyond the usual limits of such assays; details: source organism: Mycobacterium tuberculosis variant bovis
HLA-B*15:42 = experiment: IEDB peptide-MHC binding, purified MHC/competitive/fluorescence; filed as Kd, often an IC50 or EC50 that approximates it; ≥ and ≤ were set here for values at or beyond the usual limits of such assays; details: source organism: Mycobacterium tuberculosis variant bovis
HLA-B*45:06 = experiment: as above; details: source organism: Mycobacterium tuberculosis variant bovis
HLA-B*83:01 = experiment: as above; details: source organism: Mycobacterium tuberculosis variant bovis
HLA-A*02:01 [1] = experiment: IEDB peptide-MHC binding, purified MHC/competitive/fluorescence; ≥ and ≤ were set here for values at or beyond the usual limits of such assays; details: source organism: Zaire ebolavirus
HLA-A*03:01 [2] = experiment: as above
HLA-A*11:01 [3] = experiment: as above
HLA-B*15:01 = experiment: as above; details: source organism: Zaire ebolavirus
HLA-A*29:02 [4] = experiment: IEDB peptide-MHC binding, purified MHC/competitive/fluorescence; filed as Kd, often an IC50 or EC50 that approximates it; ≥ and ≤ were set here for values at or beyond the usual limits of such assays
HLA-B*15:17 = experiment: IEDB peptide-MHC binding, purified MHC/direct/fluorescence; filed as Kd, often an IC50 or EC50 that approximates it; ≥ and ≤ were set here for values at or beyond the usual limits of such assays
HLA-B*57:01 = experiment: as above; details: source organism: Camelpox virus CMS
HLA-B*58:01 = experiment: as above; details: source organism: Camelpox virus CMS
HLA-A*03:01 [5] = experiment: as above
HLA-A*11:01 [6] = experiment: as above
HLA-A*31:01 = experiment: IEDB peptide-MHC binding, purified MHC/competitive/fluorescence; filed as Kd, often an IC50 or EC50 that approximates it; ≥ and ≤ were set here for values at or beyond the usual limits of such assays
HLA-C*05:01 = experiment: IEDB peptide-MHC binding, purified MHC/direct/fluorescence; filed as Kd, often an IC50 or EC50 that approximates it; ≥ and ≤ were set here for values at or beyond the usual limits of such assays; details: source organism: Myxoma virus
HLA-A*01:01 = experiment: as above; details: source organism: Mycobacterium tuberculosis
HLA-A*29:02 [7] = experiment: as above; details: source organism: Mycobacterium tuberculosis str. Haarlem
HLA-A*02:01 [8] = experiment: IEDB peptide-MHC binding, purified MHC/competitive/fluorescence; filed as Kd, often an IC50 or EC50 that approximates it; ≥ and ≤ were set here for values at or beyond the usual limits of such assays; details: source organism: Human immunodeficiency virus 1
HLA-A*02:11 = experiment: as above; details: source organism: Human immunodeficiency virus 1
HLA-A*02:19 = experiment: as above; details: source organism: Human immunodeficiency virus 1
HLA-A*69:01 [9] = experiment: as above; details: source organism: Human immunodeficiency virus 1
HLA-A*03:01 [10] = experiment: as above; details: source organism: Kurkino virus
HLA-A*02:03 = experiment: IEDB peptide-MHC binding, purified MHC/direct/fluorescence; filed as Kd, often an IC50 or EC50 that approximates it; ≥ and ≤ were set here for values at or beyond the usual limits of such assays; details: source organism: Mycobacterium tuberculosis str. Haarlem
HLA-A*69:01 [11] = experiment: as above; details: source organism: Mycobacterium tuberculosis
[12] = source organism: Zaire ebolavirus
[13] = source organism: Vaccinia virus WR
[14] = source organism: Mycobacterium tuberculosis
[15] = source organism: Sudan ebolavirus
[16] = source organism: Vaccinia virus Copenhagen
[17] = source organism: Eastern equine encephalitis virus (STRAIN VA33[TEN BROECK])

Sequence: REAPYELNI
- Kd (HLA-B*40:01): 62.8 nM
- Kd (HLA-B*15:42): ≥ 5000 nM
- Kd (HLA-B*45:06): ≥ 5000 nM
- Kd (HLA-B*83:01): ≥ 5000 nM

Sequence: ATTAAGPPK
- IC50 (HLA-A*02:01 [1]): ≥ 354000 nM
- IC50 (HLA-A*03:01 [2]; [12]): 6300 nM
- IC50 (HLA-A*11:01 [3]; [12]): 762 nM

Sequence: KHVGLITCK
- IC50 (HLA-A*03:01 [2]; [13]): 47200 nM
- IC50 (HLA-A*11:01 [3]; [13]): ≥ 80000 nM

Sequence: EMYRHILRS
- IC50 (HLA-A*02:01 [1]): 8880 nM
- IC50 (HLA-A*03:01 [2]; [12]): ≥ 96900 nM

Sequence: ASLPKTSGH
- IC50 (HLA-A*03:01 [2]; [12]): 20100 nM
- IC50 (HLA-A*11:01 [3]; [12]): 2610 nM
- IC50 (HLA-B*15:01): ≥ 143000 nM

Sequence: TTQSIHENK
- IC50 (HLA-A*11:01 [3]; source organism: Vaccinia virus): 6040 nM

Sequence: VMADFDLEM
- Kd (HLA-A*29:02 [4]; source organism: Vibrio cholerae NCTC 8457): ≤ 0.1 nM

Sequence: IFFLPQFYY
- Kd (HLA-A*29:02 [4]; source organism: Listeria monocytogenes FSL R2-561): 1.6 nM

Sequence: ISIPRSVGF
- Kd (HLA-B*15:17; source organism: Camelpox virus CMS): ≤ 1 nM
- Kd (HLA-B*57:01): 85.9 nM
- Kd (HLA-B*58:01): 30.3 nM

Sequence: AAMVLLLRK
- Kd (HLA-A*03:01 [5]; [14]): 79.5 nM
- Kd (HLA-A*11:01 [6]; [14]): ≤ 1 nM
- Kd (HLA-A*31:01; source organism: Mycobacterium tuberculosis variant bovis BCG str. Pasteur 1173P2): ≥ 20000 nM

Sequence: FPSVFINPV
- Kd (HLA-C*05:01): ≥ 20000 nM

Sequence: QLPRDKFRK
- IC50 (HLA-A*03:01 [2]; [15]): 3380 nM
- IC50 (HLA-A*11:01 [3]; [15]): 723 nM

Sequence: PTAIYTLEY
- Kd (HLA-A*01:01): 9.2 nM
- Kd (HLA-A*29:02 [7]): 6 nM

Sequence: ELADQLIHL
- Kd (HLA-A*02:01 [8]): 1160 nM
- Kd (HLA-A*02:11): 26.2 nM
- Kd (HLA-A*02:19): 6.75 nM
- Kd (HLA-A*69:01 [9]): ≤ 1 nM

Sequence: RVIPPSLLR
- Kd (HLA-A*03:01 [5]; source organism: Mycobacterium leprae): 1750 nM
- Kd (HLA-A*31:01; source organism: Mycobacterium tuberculosis C): 13.5 nM

Sequence: TITEKTFKD
- IC50 (HLA-A*11:01 [3]; [16]): 36500 nM

Sequence: MLYKSSKSR
- Kd (HLA-A*03:01 [10]): 3.2 nM
- Kd (HLA-A*31:01; source organism: Kurkino virus): 51.7 nM

Sequence: TKLYKNKSK
- IC50 (HLA-A*03:01 [2]; [16]): 44300 nM
- IC50 (HLA-A*11:01 [3]; [16]): 57500 nM

Sequence: VIAFLILAK
- IC50 (HLA-A*03:01 [2]; [15]): 1690 nM
- IC50 (HLA-A*11:01 [3]; [15]): 564 nM

Sequence: YYFDIYNKQ
- Kd (HLA-A*29:02 [4]; source organism: Listeria monocytogenes EGD-e): 73 nM

Sequence: FSLGQGVKF
- Kd (HLA-B*15:17; source organism: Shigella flexneri): 1.9 nM

Sequence: VQQGIVRQR
- IC50 (HLA-A*03:01 [2]; [12]): ≥ 160000 nM
- IC50 (HLA-A*11:01 [3]; [12]): 8370 nM

Sequence: YFNDPALGH
- Kd (HLA-A*29:02 [4]; source organism: Giardia lamblia ATCC 50803): 114 nM

Sequence: ITYGSVSWR
- Kd (HLA-A*03:01 [5]; [17]): 61.2 nM
- Kd (HLA-A*11:01 [6]; [17]): 6.8 nM
- Kd (HLA-A*31:01; source organism: Eastern equine encephalitis virus): 1.5 nM

Sequence: VLLDSITRL
- Kd (HLA-A*02:03): ≤ 1 nM
- Kd (HLA-A*69:01 [11]): 4350 nM

Sequence: ANNNRLPKR
- IC50 (HLA-A*11:01 [3]; [13]): 11700 nM
